Paper PMC2855162 (Molecular cell, 2010)
Each block holds one molecule with its values, some of them ahead of it.

B3: His-TRAF2 (domain or fragment, human)
chain: SELLQRCESLEKKTATFENIVCVLNREVERVAMTAEACSRQHRLDQDKIEALSSKVQQLERSIGL

Key:
[1] = target: T1, His-Smt3-TRAF1 (human); assay: SEC-MALS
T1 sequence (Q13077 whole entry, looked up): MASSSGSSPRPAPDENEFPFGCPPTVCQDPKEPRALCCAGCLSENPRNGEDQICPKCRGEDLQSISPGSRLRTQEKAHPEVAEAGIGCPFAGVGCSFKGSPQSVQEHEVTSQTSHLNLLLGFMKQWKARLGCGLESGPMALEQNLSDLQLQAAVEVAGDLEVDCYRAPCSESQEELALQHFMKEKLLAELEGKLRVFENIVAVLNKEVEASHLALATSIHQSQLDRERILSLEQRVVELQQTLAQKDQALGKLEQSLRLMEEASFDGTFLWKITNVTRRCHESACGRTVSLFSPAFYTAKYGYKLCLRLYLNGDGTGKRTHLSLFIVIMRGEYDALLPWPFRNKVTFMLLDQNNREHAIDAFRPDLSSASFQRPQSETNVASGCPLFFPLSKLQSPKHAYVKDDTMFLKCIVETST

[2] = target: B3; assay: pull-down
[3] = target: T2, TRAF2 construct containing residues 266-329 (human, UniProt Q12933 266-329); assay: SEC-MALS
T2 sequence (looked up): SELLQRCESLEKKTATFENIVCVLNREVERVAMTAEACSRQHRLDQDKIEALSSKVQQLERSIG

[4] = target: the molecule itself; assay: SEC-MALS

Molecule: His-Smt3-TRAF1 (domain or fragment)
stoichiometry N [1]: 3

Molecule: B3
stoichiometry N (TRAF2 per TRAF1) [1]: 2
stoichiometry N [4]: 3

Continued, values first:

stoichiometry N [2]: ~2 TRAF2 per TRAF1
B1: untagged TRAF1 (co-expressed with His-tagged TRAF2 and cIAP2) (domain or fragment, human)
chain: FMKEKLLAELEGKLRVFENIVAVLNKEVEASHLALATSIHQSQLDRERILSLEQRVVELQQTLA

stoichiometry N [3]: 3 TRAF2 molecules per cIAP2 BIR1 molecule
B2: cIAP2 BIR1 domain (residues 26-99), non-tagged (domain or fragment, human, UniProt Q13489 26-99, looked up)
chain: LSCELYRMSTYSTFPAGVPVSERSLARAGFYYTGVNDKVKCFCCGLMLDNWKRGDSPTEKHKKLYPSCRFVQSL
